Measurements taken from patent publication US20140057807A1 (UNIVERSITY OF CHICAGO, published 2014).

B1: SEQ ID NO 255 (designed binder)
chain: NVSPPRRARVTDATETTITISWRTKTETITEFFVMAEPYYGEGYYIQRTIKPDVRSYTITGLQPGTSYSINLYTLKRPYLYPVVIDAST
B2: SEQ ID NO 263 (designed binder)
chain: NVSPPRRARVTDATETTITISWRTKTETITQFWVLAGPSVWTGRMSIQRTIKPDVRSYTITGLQPGTTYYIGLYTLQYYEYSPVVIDAST
B3: SEQ ID NO 243 (designed binder)
chain: NVSPPRRARVTDATETTITISWRTKTETITLFEVYADPQVSNGTYIQRTIKPDVRSYTITGLQPGTYYRIGLYTLSDYEKSTPVVIDAST
B4: SEQ ID NO 265 (designed binder)
chain: NVSPPRRARVTDATETTITISWRTKTETITYFHVNAQPSSPPWIQRTIKPDVRSYTITGLQPGTYYGISLYTLSWRGEYHPVVIDAST
B5: SEQ ID NO 264 (designed binder)
chain: NVSPPRRARVTDATETTITISWRTKTETITTFRVWARPYLYYWIQRTIKPDVRSYTITGLQPGTHYDIGLSTLSSTWYYPVVIDAST
B6: SEQ ID NO 241 (designed binder)
chain: NVSPPRRARVTDATETTITISWRTKTETITSFNVVAYPSSQDGIQRTIKPDVRSYTITGLQPGTGYQIHLTTLGHLSFSPVVIDAST
B7: SEQ ID NO 252 (designed binder)
chain: NVSPPRRARVTDATETTITISWRTKTETITSFRVDAGPGVAGSIQRTIKPDVRSYTITGLQPGTYYQIQLAALAYGYYPVVIDAST
B8: SEQ ID NO 250 (designed binder)
chain: NVSPPRRARVTDATETTITISWRTKTETITQFSVYAYPARSKYHIQRTIKPDVRSYTITGLQPGTGYRIYLQTLGGYSDEPVVIDAST
B9: SEQ ID NO 277 (designed binder)
chain: NVSPPRRARVTDATETTITISWRTKTETITTFMVVAYPMFQYRIQRTIKPDVRSYTITGLQPGTSYTIYLQTLGYASWYPVVIDAST
B10: SEQ ID NO 254 (designed binder)
chain: NVSPPRRARVTDATETTITISWRTKTETITYFSVEAYPRWYALIQRTIKPDVRSYTITGLQPGTSYYIYLWTLMMDTSSPVVIDAST
B11: SEQ ID NO 251 (designed binder)
chain: NVSPPRRARVTDATETTITISWRTKTETITEFDVGADPGKGHAIQRTIKPDVRSYTITGLQPGTSYLIGLRTLNRVLHYPVVIDAST
B12: SEQ ID NO 270 (designed binder)
chain: NVSPPRRARVTDATETTITISWRTKTETITAFYVHAVPMLWVVNGIQRTIKPDVRSYTITGLQPGTSYTINLETLRMSSHYYPVVIDAST
B13: SEQ ID NO 257 (designed binder)
chain: NVSPPRRARVTDATETTITISWRTKTETITTFDVYAYPGYGGSYWSIQRTIKPDVRSYTITGLQPGTSYEIELETLHYSHAYPVVIDAST
B14: SEQ ID NO 256 (designed binder)
chain: NVSPPRRARVTDATETTITISWRTKTETITSFYVMAQPTNYYGQSTYIQRTIKPDVRSYTITGLQPGTYYGIQLYTLMYRASAPVVIDAST
B15: SEQ ID NO 248 (designed binder)
chain: NVSPPRRARVTDATETTITISWRTKTETITYFGVGADPAMYIEYPYIQRTIKPDVRSYTITGLQPGTQYGIYLTTLSQASDYPVVIDAST
B16: SEQ ID NO 242 (designed binder)
chain: NVSPPRRARVTDATETTITISWRTKTETITYFTVDAAPSLVVDNIQRTIKPDVRSYTITGLQPGTYYIILLYTLYNYDALPVVIDAST
B17: SEQ ID NO 272 (designed binder)
chain: NVSPPRRARVTDATETTITISWRTKTETITAFYVGAHPWYNLEIQRTIKPDVRSYTITGLQPGTGYVISLYTLWHHNEAPVVIDAST
B18: SEQ ID NO 276 (designed binder)
chain: NVSPPRRARVTDATETTITISWRTKTETITLFYVYAYPRYYPGIQRTIKPDVRSYTITGLQPGTSYSIYLSTLWDTKGYPVVIDAST
B19: SEQ ID NO 271 (designed binder)
chain: NVSPPRRARVTDATETTITISWRTKTETITSFYVRALPVSAWPIQRTIKPDVRSYTITGLQPGTGYNIGLVTLYYGASYVPVVIDAST
B20: SEQ ID NO 253 (designed binder)
chain: NVSPPRRARVTDATETTITISWRTKTETITRFYVSAQPRFYYYNIQRTIKPDVRSYTITGLQPGTDYTIGLYTLGVYMHYPVVIDAST
B21: SEQ ID NO 260 (designed binder)
chain: NVSPPRRARVTDATETTITISWRTKTETITYFYVSAYPYYVAYDIQRTIKPDVRSYTITGLQPGTYYDINLSTLSYSDNSPVVIDAST
B22: SEQ ID NO 273 (designed binder)
chain: NVSPPRRARVTDATETTITISWRTKTETITSFWVHAYPSGASGGIQRTIKPDVRSYTITGLQPGTNYGIALATLTHYYTYSPVVIDAST
B23: SEQ ID NO 266 (designed binder)
chain: NVSPPRRARVTDATETTITISWRTKTETITRFSVLAYPSKRTTYTPIQRTIKPDVRSYTITGLQPGTGYTIRLYTLSPYYWVYPVVIDAST
B24: SEQ ID NO 246 (designed binder)
chain: NVSPPRRARVTDATETTITISWRTKTETITYFYVAADPTEDGKIQRTIKPDVRSYTITGLQPGTYYTIHLRTLYYLVAVPVVIDAST
B25: SEQ ID NO 274 (designed binder)
chain: NVSPPRRARVTDATETTITISWRTKTETITGFHVFASPWYSGSQSIQRTIKPDVRSYTITGLQPGTTYYIGLNTLYIPGHEPPVVIDAST
B26: SEQ ID NO 249 (designed binder)
chain: NVSPPRRARVTDATETTITISWRTKTETITYFGVRAYPTYRSSIQRTIKPDVRSYTITGLQPGTLYRISLYTLDSAGYNPVVIDAST
B27: SEQ ID NO 268 (designed binder)
chain: NVSPPRRARVTDATETTITISWRTKTETITYFYVYAKPRYINSIQRTIKPDVRSYTITGLQPGTDYSIYLDTLYWGGEYGPVVIDAST
B28: SEQ ID NO 244 (designed binder)
chain: NVSPPRRARVTDATETTITISWRTKTETITRFFVSAVPFETGTIQRTIKPDVRSYTITGLQPGTAYDIALYTLFGYYYYPVVIDAST
B29: SEQ ID NO 258 (designed binder)
chain: NVSPPRRARVTDATETTITISWRTKTETITYFSVLAHPLEVSSYSIQRTIKPDVRSYTITGLQPGTGYRIFLSTLRWYYGMPVVIDAST
B30: SEQ ID NO 261 (designed binder)
chain: NVSPPRRARVTDATETTITISWRTKTETITYFKVRAYPAYNYGGWSIQRTIKPDVRSYTITGLQPGTYYSIYLDTLYLGAYWYPVVIDAST
B31: SEQ ID NO 262 (designed binder)
chain: NVSPPRSARVTDATETTITISWRTKTETITYFVVGAFPAYSAHVDIQRTIKPDVRSYTITGLQPGTGYIINLETLINATGYPVVIDAST
B32: SEQ ID NO 267 (designed binder)
chain: NVSPPRRARVTDATETTITISWRTKTETITWFYVSAFPLLVDGIQRTIKPDVRSYTITGLQPGTYYGINLYTLSSYPVVIDAST
B33: SEQ ID NO 269 (designed binder)
chain: NVSPPRRARVTDATETTITISWRTKTETITAFNVYASPEYWRYGYFRFIQRTIKPDVRSYTITGLQPGTGYYIYLYTLYHKYGYYPVVIDAST
B34: SEQ ID NO 259 (designed binder)
chain: NVSPPRRARVTDATETTITISWRTKTETITYFSVYANPMYPFYIQRTIKPDVRSYTITGLQPGTYYEIYLGTLYYFATYPVVIDAST
B35: SEQ ID NO 275 (designed binder)
chain: NVSPPRRARVTDATETTITISWRTKTETITSFYVDAGPWYRPDAYEYIQRTIKPDVRSYTITGLQPGTGYSIQLYTLYAYAYLYPVVIDAST
B36: SEQ ID NO 245 (designed binder)
chain: NVSPPRRARVTDATETTITISWRTKTETITDFGVVASPYLGQGIQRTIKPDVRSYTITGLQPGTAYSIKLHTLHVHDYYPVVIDAST

The binders below were run against T1, human serum albumin (human, UniProt P02768 25-609) (assay: cradle library selection hit).
T1 construct: also called HSA
T1 sequence (P02768 25-609 limits assumed): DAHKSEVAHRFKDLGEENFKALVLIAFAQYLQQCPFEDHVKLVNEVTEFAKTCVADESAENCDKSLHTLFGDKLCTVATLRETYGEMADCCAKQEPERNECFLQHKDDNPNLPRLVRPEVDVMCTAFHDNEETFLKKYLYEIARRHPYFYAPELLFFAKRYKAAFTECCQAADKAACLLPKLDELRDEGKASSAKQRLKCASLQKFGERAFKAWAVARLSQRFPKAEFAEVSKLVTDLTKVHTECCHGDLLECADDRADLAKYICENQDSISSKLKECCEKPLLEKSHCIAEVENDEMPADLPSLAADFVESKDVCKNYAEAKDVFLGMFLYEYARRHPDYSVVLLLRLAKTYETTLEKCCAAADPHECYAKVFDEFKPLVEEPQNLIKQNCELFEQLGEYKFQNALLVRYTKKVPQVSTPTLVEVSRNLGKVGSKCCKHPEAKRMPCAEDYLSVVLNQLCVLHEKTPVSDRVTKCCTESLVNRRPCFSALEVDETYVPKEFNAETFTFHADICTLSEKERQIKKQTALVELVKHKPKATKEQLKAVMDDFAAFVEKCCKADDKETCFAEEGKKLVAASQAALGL

Binding result, binds:
B1
B2
B3
B4
B5
B6
B7
B8
B9
B10
B11
B12
B13
B14
B15
B16
B17
B18
B19
B20
B21
B22
B23
B24
B25
B26
B27
B28
B29
B30
B31
B32
B33
B34
B35
B36
